Measurements published in patent publication US20220411498A1 (JACOBIO PHARMACEUTICALS, published 2022).
Substitutions are numbered along the chain they refer to.

B1: h201H3.1+h201L1.1dmut G2C (antibody, human IgG2, kappa, V domains shown)
VH: QVQLVESGGGVVQPGRSLRLSCAASGFTFSDYGMHWVRQAPGKGLEWVAYISSGSSIMYYADTVKGRFTISRDNSKNTLYLQMNSLRAEDTAVYYCARDLYYDHVLDYWGQGTTVTVSS
VL: DIQMTQSPSSLSASVGDRVTITCRASQEIRGYLIWLQQKPGKAIKRLIYAASTLESGVPSRFSGSRSGSDYTLTISSLQPEDFATYYCLQYTSYPRTFGQGTKVEIKR
notes: Humanized antibody, expressed in 293F cells
B2: M201 HuH1L1(D-E) G2C (antibody, human IgG2, kappa, V domains shown)
VH: B1 VH with Q1E, V11L, R16G, A49S, S75A, T78S, T114L, V115L
VL: B1 VL with K42G, S69T, Y71F, Q100G
notes: as for B1
B3: h201H3.1+h219L1.1 G2C (antibody, human IgG2, kappa, V domains shown)
VH: B1 VH
VL: B1 VL with I29V, R30S, I34N, T92A
notes: as for B1

molecular target: T1, huCD39 on the cell surface (293T/17-huCD39 cells) (human, UniProt P49961 1-510); test: cell-based or functional assay
T1 sequence (looked up): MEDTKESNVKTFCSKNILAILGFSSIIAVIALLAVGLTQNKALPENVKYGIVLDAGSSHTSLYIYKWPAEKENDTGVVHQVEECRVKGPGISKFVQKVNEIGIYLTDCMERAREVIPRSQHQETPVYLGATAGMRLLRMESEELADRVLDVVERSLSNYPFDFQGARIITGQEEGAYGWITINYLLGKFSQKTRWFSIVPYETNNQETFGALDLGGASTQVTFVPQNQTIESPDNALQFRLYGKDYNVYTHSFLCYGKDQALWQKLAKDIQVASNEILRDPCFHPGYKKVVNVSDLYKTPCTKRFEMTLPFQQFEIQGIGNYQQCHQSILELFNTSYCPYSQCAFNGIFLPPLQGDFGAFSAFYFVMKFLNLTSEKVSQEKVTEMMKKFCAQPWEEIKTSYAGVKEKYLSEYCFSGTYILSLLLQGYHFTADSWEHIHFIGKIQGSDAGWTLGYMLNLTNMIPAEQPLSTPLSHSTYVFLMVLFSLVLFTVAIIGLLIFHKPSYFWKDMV

Binder | Blocking of ATPase activity on cell surface (293T/17-huCD39, CellTiter Glo): Bottom | Blocking of ATPase activity on cell surface (293T/17-huCD39, CellTiter Glo): EC50 | Blocking of ATPase activity on cell surface (293T/17-huCD39, CellTiter Glo): Top
B1 | 39600 | 0.038 nM | 245000
B2 | 31300 | 0.026 nM | 152000
B3 | 38800 | 0.077 nM | 250000

molecular target: T1, huCD39 on the cell surface …; test: cell-based or functional assay; remark: another data set of the same source

Binder | EC50 of reversal of ATP-mediated proliferation inhibition of human CD4+ T cells (CFSE, flow cytometry) | EC50 of reversal of ATP-mediated proliferation inhibition of human CD8+ T cells (CFSE, flow cytometry)
B1 | 5.08 nM | 7.08 nM
B2 | 25.5 nM | 60.4 nM
B3 | 0.646 nM | 1.35 nM

molecular target: T1, huCD39 on the cell surface …; test: flow cytometry on 293T/17-huCD39 cells
Description: Flow cytometry assay: recombinant host cell line 293T/17-huCD39 cells expressing huCD39 were used to evaluate the binding ability of the humanized antibody to the natural CD39 protein on the cell surface. The recombinant cells were resuspended in PBS buffer, 2×10⁶ cells were added to a 96-well U-plate, and a certain gradient dilution range of the humanized antibody was incubated for 1h at 4° C. in a refrigerator or on ice. The mixture was centrifuged at 1500 rpm for 3 min at 4° C., and washed three times with PBS buffer. Then, incubated for 30 min at 4° C. in the refrigerator or on ice with diluted Alexa Fluor 488-labeled goat anti-human polyclonal antibody (pAb): Goat anti-Human IgG (H+L) Cross-Adsorbed Secondary Antibody, Alexa Fluor 488 (thermo), and finally the cells were washed three times with PBS as described above and analyzed in MACSQuant flow cytometry. Data plots were generated and affinity data were counted using GraphPad Prism software (FIG. 5). The results are shown in Table 5, and the EC₅₀ values of 293T/17-huCD39 humanized antibody were all at the level of 10⁻⁹M.

Binder | Bottom | EC50 | Top
B1 | -1.33 | 3.31 nM | 280
B2 | -2.15 | 2.94 nM | 329
B3 | 8.18 | 3.1 nM | 266

molecular target: T2, huCD39 recombinant protein (human, UniProt P49961 38-478); test: indirect ELISA, huCD39 recombinant protein coated at 1 ug/mL
T2 construct: the entry is the extracellular domain and ends in a histidine tag; also called soluble huCD39 protein; human CD39 extracellular domain recombinant protein
T2 sequence: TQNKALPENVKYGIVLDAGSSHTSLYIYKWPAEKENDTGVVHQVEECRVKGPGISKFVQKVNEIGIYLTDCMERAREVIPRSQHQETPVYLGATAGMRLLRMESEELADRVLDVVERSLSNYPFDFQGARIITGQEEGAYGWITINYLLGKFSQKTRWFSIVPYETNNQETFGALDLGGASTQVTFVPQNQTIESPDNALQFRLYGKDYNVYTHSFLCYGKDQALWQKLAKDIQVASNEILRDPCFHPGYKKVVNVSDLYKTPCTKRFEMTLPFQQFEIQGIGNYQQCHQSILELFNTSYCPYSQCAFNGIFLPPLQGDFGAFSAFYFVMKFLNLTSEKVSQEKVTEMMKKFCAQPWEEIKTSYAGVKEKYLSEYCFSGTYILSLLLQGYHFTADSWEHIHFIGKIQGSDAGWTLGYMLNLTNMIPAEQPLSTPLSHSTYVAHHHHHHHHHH
Description: The next day, washed 5 times with PBS buffer and blocked with 200 μL/well of 2% skim milk powder for 1 h. A certain dose range of CD39 humanized antibody was added, and incubated for 1 h at room temperature. Then, washed 5 times with PBST washing buffer (PBS, 0.05% Tween 20), 100 μL HRP-labeled secondary antibody was added to each well, and incubated for 30 min at room temperature. The plates were washed 5 times again, and TMB (Life Technologies) was added for color development for 5 to 10 min. Finally, 1N HCl was added to terminate the reaction, and the OD value was measured at 450 nm. GraphPad Prism software was used to generate data plots and count the affinity data (FIG. 4). The EC₅₀ values of the binding activity of the three humanized antibodies were all at the level of 10⁻¹⁰ M.

Binder | Bottom | EC50 | Top
B1 | 0.109 OD450 | 0.433 nM | 1.03 OD450
B2 | 0.068 OD450 | 0.514 nM | 1.18 OD450
B3 | 0.085 OD450 | 0.709 nM | 0.991 OD450
